PMC4785722 (Journal of molecular biology, 2009)

Biological target: the molecule itself
Assay: native MS

B1: bacteriophage MS2 coat protein dimer (natural protein)
chain: ASNFTQFVLVDNGGTGDVTVAPSNFANGVAEWISSNSRSQAYKVTCSVRQSSAQNRKYTIKVEVPKVATQTVGGVELPVAAWRSYLNMELTIPIFATNSDCELIVKAMQGLLKDGNPIPSAIAANSGIY
- stoichiometry N: 10 CP2 dimers
